{"source": "patent US20120329986A1", "about": "(UNIVERSITE DE MONTREAL, published 2012)", "biological_target": "CD36 receptor (in the src-kinase cellular assay)", "experiment": "cell-based or functional assay", "note": "Square brackets hold non-standard residues; d marks the D form. Ends that are not written are not given here. dTrp(2-Me) = Cc1[nH]c2ccccc2c1C[C@@H](N)C(=O)O; HAIC = not defined here", "data": [{"binder": "[HAIC][dTrp(2-Me)][dK]W[dF]K-NH2 (reading uncertain)", "note": "[EP80317]", "values": [{"measurement": "SRC-kinase cellular assay EC50", "value": 0.026, "unit": "µM"}]}]}
